The series has as its target T1, CREB B-ZIP domain (UniProt P16220 269-327).
T1 sequence: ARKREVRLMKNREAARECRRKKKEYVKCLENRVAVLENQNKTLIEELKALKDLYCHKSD
Description: EMSA. In general terms: A gel shift assay detects complexes by their altered migration in electrophoresis.

B1: CREB (CRE) 28-mer (dsDNA)
DNA 1: GTCAGTCAGATGACGTCATATCGGTCAG
DNA 2: CTGACCGATATGACGTCATCTGACTGAC
B1: the binding result is on record as “binds”.

(Values after article PMC7377350.)
